According to patent publication US20120204275A1 (NEOTOPE BIOSCIENCES, published 2012):

Target: T1, full-length ApoE4 (human, UniProt P02649 19-317)
T1 construct: In cell lysate; P02649 is printed for the E3 allele (residues 19-317); also called ApoE4(1-299)
T1 chain: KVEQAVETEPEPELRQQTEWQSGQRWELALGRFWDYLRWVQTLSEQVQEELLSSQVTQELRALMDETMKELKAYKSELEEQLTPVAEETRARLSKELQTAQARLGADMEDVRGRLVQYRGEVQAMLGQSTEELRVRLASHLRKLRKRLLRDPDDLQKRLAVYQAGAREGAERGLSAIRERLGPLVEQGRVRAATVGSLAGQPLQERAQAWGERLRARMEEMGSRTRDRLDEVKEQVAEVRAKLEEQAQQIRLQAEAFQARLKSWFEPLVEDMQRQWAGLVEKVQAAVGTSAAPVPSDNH
Assay: immunoprecipitation from cell lysate, western blot with 1F9
Method: Cell Lysates preparation: Media was aspirated. Cells were treated for desired time by adding fresh media containing regulator. Media was then removed and cells rinsed with ice-cold PBS to harvest cells under nondenaturing conditions. PBS was removed, and 0.5 ml ice-cold 1× cell lysis buffer was added to each plate (10 cm). The plates were incubated on ice for 5 minutes. Cells were scraped off the plates and transferred to microcentrifuge tubes. The cells were kept on ice, and sonicated on ice three times for 5 seconds each. The samples were then microcentrifuged for 10 minutes at 14,000×g, 4° C., and the supernatant was transferred to a new tube. When necessary, lysate was stored at −80° C.
The membrane was then incubated with primary antibody anti-ApoE4 antibody 1F9 (MBL International Corp., Cat# M067-3) in 10 ml primary antibody dilution buffer with gentle agitation overnight at 4° C. […]
Lysates of full-length ApoE3, full-length ApoE4, ApoE3(1-272), and ApoE4(1-272) lysates were detected using Western blot with 1 μg/ml 1F9 (Medical and Biological Laboratories) (Lanes 1-4; FIG. 3). […] The m15G8 immunoprecipitation were then detected using Western blot with 1 μg/ml 1F9 (Lanes 5-8; FIG. 3). […]

B1: mouse monoclonal antibody 15G8 (antibody, V domains shown)
VH: EVKLVESGGGLVKPGGSLKLSCAASGFTFSFYAMSWVRQTPEKRLEWVASLSRGGSTYYPDSVKGRFTISRDNARNTLYLQMSSLRSEDTAMFYCAREGATALYAMDYWGQGTSVTVSS
VL: DVLMTQTPLSLPVSLGDQASISCRSSQSIVHSNGNTYLQWYLQKPGQSPKLLIYKVSNRFSGVPDRFSGSGSGTDFTLKISRVEAEDLGIYYCFQGSHVPWTFGGGTKLEIK
notes: Same variable regions as 12C12 and 15E10; also called m15G8; mouse 15G8
Question: Does B1 bind?
Answer: no binding
